This passage reports response results from article PMC10053439.

The target of the test is GAD-SNX5, C-terminally truncated splice variant of SNX5 lacking the last 45 amino acids. Kind of test: yeast two-hybrid β-galactosidase liquid assay. Particulars: mean of four transformants with SD; parent: est. 190; read off a plot.

Consider “LexA-VPS13A(VAB), LexA DNA-binding domain fusion to the VAB domain of VPS13A (from UniProt Q96RL7) N2418S”, for which the response was 21 U.
